Data taken from the supplement of paper PMC7877785.
± gives the uncertainty stated by the source.

Experiment: self-splicing fitness, log relative to wild type (ln ratio); higher = more splicing; Tetrahymena group I intron in knt gene, E. coli kanamycin selection, DiMSum; sequences stand for … in CUCUCU…GGAGGGAAAAGUUAUCAGGCAUGCACCUGGUAGCUAGUCUUUAAACCAAUAGAUUGCAUCGGUUUAAAAGGCAAGACCGUCAAAUUGCGGGAAAGGGGUCAACAGCCGUUCAGUACCAAGUCUCAGGGGAAACUUUGAGAUGGCCUUGCAAAGGGUAUGGUAAUAAGCUGACGGACAUGGUCCUAACCACGCAGCCAAGUCCUAAGUCAACAGAUCUUCUGUUGAUAUGGAUGCAGUUCACAGACUAAAUGUCGGUCGGGGAAGAUGUAUUCUUCUCAUAAGAUAUAGUCGGACCUCUCCUUAAUGGGAGCUAGCGGAUGAAGUGAUGCAACACUGGAGCCGCUGGGAACUAAUUUGUAUGCGAAAGUAUAUUGAUUAGUUUUGGAGUACUCGUGGUCG
Method in brief: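 Colonies from six replicate transformations of E. coli BL21(DE3) were pooled and amplicon-sequenced on an Illumina HiSeq 2500. The library placed an intron with all eight P1ex-region nucleotides randomised inside the knt kanamycin-resistance gene on pET-22b(+), and cells grew overnight at 37°C or 30°C on LB agar with or without 25 μg/mL kanamycin (plus 100 μg/mL carbenicillin, 50 μM IPTG, 0.2% rhamnose). Fitness is the DiMSum error-weighted combination of wild-type-normalised replicate fold changes, kanamycin versus none.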

Sequence | self-splicing fitness (ln) (30 °C) | self-splicing fitness (ln) (37 °C)
GUCUAGCAAUAUUACGCGUA | -0.384 ± 0.081 | 0.391 ± 0.09
GUCUAGCAAUAUUACGGGGC | – | -2.34 ± 0.36
GUCUAGCAAUAUUACGUACC | -0.591 ± 0.29 | -0.721 ± 0.3
GUCUAGCAAUAUUACGUCGG | -3.43 ± 0.2 | -2.51 ± 0.2
GUCUAGCAAUAUUACGUGUU | -1.61 ± 0.092 | -0.352 ± 0.093
GUCUAGCAAUAUUACGUUAU | -0.954 ± 0.061 | -0.704 ± 0.055
GUCUAGCAAUAUUACGUUUA | -0.64 ± 0.12 | -1 ± 0.1
GUGAAGCAAUAUUACGAAGU | -0.832 ± 0.14 | -1.05 ± 0.16
GUGAAGCAAUAUUACGACUC | 0.243 ± 0.26 | -0.398 ± 0.28
GUGAAGCAAUAUUACGAUAA | -0.524 ± 0.15 | 0.6 ± 0.15
GUGAAGCAAUAUUACGAUAU | -0.274 ± 0.044 | -0.103 ± 0.058
GUGAAGCAAUAUUACGAUUC | -0.545 ± 0.098 | 0.0735 ± 0.17
GUGAAGCAAUAUUACGCACC | – | -1.92 ± 0.34
GUGAAGCAAUAUUACGCAUC | – | -1.69 ± 0.49
GUGAAGCAAUAUUACGCCCU | -0.176 ± 0.13 | 0.602 ± 0.15
GUGAAGCAAUAUUACGCUCG | -1.69 ± 0.11 | -0.267 ± 0.13
GUGAAGCAAUAUUACGGCAC | -0.747 ± 0.16 | -0.289 ± 0.33
GUGAAGCAAUAUUACGGCAU | 0.0954 ± 0.083 | 0.334 ± 0.089
GUGAAGCAAUAUUACGGCUC | -0.996 ± 0.091 | -0.646 ± 0.099
GUGAAGCAAUAUUACGGGCU | -2.08 ± 0.13 | -0.869 ± 0.15
GUGAAGCAAUAUUACGGGUU | -1.67 ± 0.069 | -1.4 ± 0.1
GUGAAGCAAUAUUACGUAUG | -2.38 ± 0.085 | -1.29 ± 0.088
GUGAAGCAAUAUUACGUGCC | -1.92 ± 0.32 | -1.32 ± 0.36
GUGCAGCAAUAUUACGAACA | -1.32 ± 0.22 | -1.25 ± 0.2
GUGCAGCAAUAUUACGAAUA | -1.79 ± 0.14 | -1.07 ± 0.17

Sequence | self-splicing fitness (ln) (30 °C) | self-splicing fitness (ln) (37 °C)
GUGCAGCAAUAUUACGAAUC | -1.28 ± 0.17 | -0.491 ± 0.18
GUGCAGCAAUAUUACGAAUU | -1.43 ± 0.091 | -0.441 ± 0.12
GUGCAGCAAUAUUACGAGGU | -3.63 ± 0.3 | -2.47 ± 0.21
GUGCAGCAAUAUUACGCCCG | -1.69 ± 0.36 | -1.51 ± 0.37
GUGCAGCAAUAUUACGCGAG | -2.55 ± 0.13 | -1.7 ± 0.12
GUGCAGCAAUAUUACGCUGG | -2.41 ± 0.12 | -1.09 ± 0.13
GUGCAGCAAUAUUACGCUGU | -3.35 ± 0.24 | -2.63 ± 0.26
GUGCAGCAAUAUUACGGACG | -2.47 ± 0.1 | -0.949 ± 0.11
GUGCAGCAAUAUUACGGUAC | -2.67 ± 0.15 | -2.07 ± 0.17
GUGCAGCAAUAUUACGUAGG | -1.28 ± 0.11 | -1.05 ± 0.16
GUGCAGCAAUAUUACGUCUA | -0.238 ± 0.078 | 0.283 ± 0.083
GUGCAGCAAUAUUACGUCUU | -1.33 ± 0.083 | -0.0365 ± 0.11
GUGCAGCAAUAUUACGUGGA | -3.24 ± 0.28 | -2.24 ± 0.19
GUGCAGCAAUAUUACGUGUC | -2.72 ± 0.16 | -2.48 ± 0.25
GUGGAGCAAUAUUACGAAGU | -2.01 ± 0.28 | -1.66 ± 0.39
GUGGAGCAAUAUUACGAAUU | – | -3.14 ± 0.47
GUGGAGCAAUAUUACGACAA | -1.83 ± 0.24 | -1.38 ± 0.25
GUGGAGCAAUAUUACGACUC | -3.19 ± 0.45 | -1.47 ± 0.44
GUGGAGCAAUAUUACGAGGA | -3.96 ± 0.31 | -1.75 ± 0.19
GUGGAGCAAUAUUACGAGGC | – | -1.03 ± 0.5
GUGGAGCAAUAUUACGAUGC | -1.96 ± 0.15 | -1.03 ± 0.16
GUGGAGCAAUAUUACGAUGU | -2.4 ± 0.23 | -0.928 ± 0.29
GUGGAGCAAUAUUACGCACG | -2.63 ± 0.29 | -2.32 ± 0.25
GUGGAGCAAUAUUACGCGCA | -1.48 ± 0.43 | -1.47 ± 0.35
GUGGAGCAAUAUUACGGAAA | -1.87 ± 0.46 | –

Sequence | self-splicing fitness (ln) (30 °C) | self-splicing fitness (ln) (37 °C)
GUGGAGCAAUAUUACGGGAC | -2.17 ± 0.29 | –
GUGGAGCAAUAUUACGGUGG | -3.76 ± 0.23 | -2.5 ± 0.23
GUGGAGCAAUAUUACGGUGU | -2.5 ± 0.17 | -1.78 ± 0.22
GUGGAGCAAUAUUACGGUUU | -3.22 ± 0.14 | -1.65 ± 0.15
GUGGAGCAAUAUUACGUCGC | – | -1.71 ± 0.42
GUGGAGCAAUAUUACGUCUU | -2.36 ± 0.24 | -2.36 ± 0.36
GUGGAGCAAUAUUACGUUCU | -4.21 ± 0.26 | -2.38 ± 0.18
GUGUAGCAAUAUUACGAGAU | -2.83 ± 0.26 | -1.23 ± 0.22
GUGUAGCAAUAUUACGAUGC | -1.85 ± 0.16 | -0.552 ± 0.18
GUGUAGCAAUAUUACGCGCG | -2.48 ± 0.36 | -2.62 ± 0.38
GUGUAGCAAUAUUACGCGUA | -1.82 ± 0.26 | -0.729 ± 0.17
GUGUAGCAAUAUUACGCUGA | -1.22 ± 0.18 | -1.58 ± 0.17
GUGUAGCAAUAUUACGGCGU | -1.42 ± 0.11 | -1.04 ± 0.12
GUGUAGCAAUAUUACGGGAU | -2.93 ± 0.17 | -2.18 ± 0.2
GUGUAGCAAUAUUACGGGCC | -1.6 ± 0.23 | -1.85 ± 0.48
GUGUAGCAAUAUUACGGGUA | -2.39 ± 0.2 | -2.42 ± 0.16
GUGUAGCAAUAUUACGUGAC | -1.35 ± 0.11 | -1.29 ± 0.19
GUGUAGCAAUAUUACGUGGC | -1.72 ± 0.18 | –
GUUAAGCAAUAUUACGAACA | -2.16 ± 0.29 | -1.32 ± 0.21
GUUAAGCAAUAUUACGACGC | -1.05 ± 0.24 | -0.36 ± 0.21
GUUAAGCAAUAUUACGAGCA | -1.9 ± 0.12 | -0.552 ± 0.11
GUUAAGCAAUAUUACGAGCU | -1.76 ± 0.13 | -1.08 ± 0.15
GUUAAGCAAUAUUACGAGGA | -1.5 ± 0.23 | -1.15 ± 0.39
GUUAAGCAAUAUUACGAGUC | -3.05 ± 0.12 | -1.86 ± 0.15
GUUAAGCAAUAUUACGAUGU | -1.16 ± 0.088 | 0.226 ± 0.13

Sequence | self-splicing fitness (ln) (30 °C) | self-splicing fitness (ln) (37 °C)
GUUAAGCAAUAUUACGAUUA | -1.04 ± 0.13 | -0.324 ± 0.11
GUUAAGCAAUAUUACGAUUU | -0.759 ± 0.09 | -0.00651 ± 0.14
GUUAAGCAAUAUUACGCAAG | -1.84 ± 0.18 | -1.71 ± 0.23
GUUAAGCAAUAUUACGCAUG | -1.11 ± 0.083 | -0.624 ± 0.11
GUUAAGCAAUAUUACGCAUU | -2.16 ± 0.18 | -1.1 ± 0.16
GUUAAGCAAUAUUACGCCCG | -0.342 ± 0.39 | -1.05 ± 0.45
GUUAAGCAAUAUUACGCGCC | -2.44 ± 0.2 | -1.56 ± 0.16
GUUAAGCAAUAUUACGCGCU | -2 ± 0.16 | -1.63 ± 0.2
GUUAAGCAAUAUUACGCGGG | -2.2 ± 0.12 | -1.69 ± 0.16
GUUAAGCAAUAUUACGGAAG | -3.2 ± 0.19 | -1.6 ± 0.2
GUUAAGCAAUAUUACGGCGG | -2.8 ± 0.21 | -2.29 ± 0.33
GUUAAGCAAUAUUACGUAUC | -1.79 ± 0.1 | -1.46 ± 0.14
GUUAAGCAAUAUUACGUAUU | -3.27 ± 0.19 | -0.277 ± 0.16
GUUAAGCAAUAUUACGUCGA | -1.79 ± 0.11 | -1.02 ± 0.11
GUUAAGCAAUAUUACGUGAU | -1.94 ± 0.067 | -1.44 ± 0.082
GUUAAGCAAUAUUACGUGCC | -1.39 ± 0.25 | -0.253 ± 0.36
GUUAAGCAAUAUUACGUGCG | -0.344 ± 0.12 | -1.15 ± 0.12
GUUAAGCAAUAUUACGUGGA | -2.84 ± 0.15 | -2.31 ± 0.15
GUUAAGCAAUAUUACGUGGG | -2.87 ± 0.13 | -2.65 ± 0.17
GUUAAGCAAUAUUACGUGUC | -2.09 ± 0.089 | -0.788 ± 0.11
GUUAAGCAAUAUUACGUUCU | -1.03 ± 0.085 | -0.445 ± 0.091
GUUAAGCAAUAUUACGUUGG | -2.45 ± 0.14 | -1.19 ± 0.15
GUUCAGCAAUAUUACGAACU | -3.89 ± 0.14 | -2.56 ± 0.16
